Series [1] deals with T1, FliF of the native flagellar basal body (native MS ring) (Salmonella enterica serovar Typhimurium …, UniProt P15928 1-560).
T1 construct: source: endogenous, basal body purified from Salmonella HK1003 (sucrose density gradient); copies: 34
T1 sequence: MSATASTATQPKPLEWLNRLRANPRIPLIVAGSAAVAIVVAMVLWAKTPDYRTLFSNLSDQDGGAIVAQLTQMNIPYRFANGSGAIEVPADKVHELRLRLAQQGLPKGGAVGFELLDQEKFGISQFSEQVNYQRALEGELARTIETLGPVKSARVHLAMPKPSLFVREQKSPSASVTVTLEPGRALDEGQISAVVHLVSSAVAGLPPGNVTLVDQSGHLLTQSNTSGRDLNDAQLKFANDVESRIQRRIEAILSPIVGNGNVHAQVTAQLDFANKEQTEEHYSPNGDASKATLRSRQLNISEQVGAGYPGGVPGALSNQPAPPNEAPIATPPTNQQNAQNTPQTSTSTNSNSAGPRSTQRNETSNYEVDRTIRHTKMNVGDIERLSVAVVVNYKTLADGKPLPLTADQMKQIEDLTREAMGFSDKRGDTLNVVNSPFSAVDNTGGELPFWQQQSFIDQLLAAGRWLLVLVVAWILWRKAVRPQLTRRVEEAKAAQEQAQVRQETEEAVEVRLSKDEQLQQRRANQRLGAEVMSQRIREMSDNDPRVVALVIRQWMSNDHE
Nature of the series: cryo-EM structure; 2D class averages of end-on views of the basal body (rivet) purified from Salmonella HK1003; rotational symmetry by autocorrelation and Fourier transformation; assembly formed in cells, purified as a whole. The conditions noted are these: both partners purified.

Series [2] concerns the molecule itself. Nature of the series: cryo-EM structure; MS ring of full-length FliF (dataset 1, pKOT112) in Buffer S with 0.05% LMNG; 2D classes and 3D refinement with C34 symmetry, 3.7 Å.

One may read the stoichiometry N as the number of molecules, sites or subunits per partner or assembly.

B1: FliG of the C ring of the native basal body (wild-type, CCW motor) (natural protein)
chain: MSNLSGTDKSVILLMTIGEDRAAEVFKHLSTREVQALSTAMANVRQISNKQLTDVLSEFEQEAEQFAALNINANEYLRSVLVKALGEERASSLLEDILETRDTTSGIETLNFMEPQSAADLIRDEHPQIIATILVHLKRSQAADILALFDERLRHDVMLRIATFGGVQPAALAELTEVLNGLLDGQNLKRSKMGGVRTAAEIINLMKTQQEEAVITAVREFDGELAQKIIDEMFLFENLVDVDDRSIQRLLQEVDSESLLIALKGAEPPLREKFLRNMSQRAADILRDDLANRGPVRLSQVENEQKAILLIVRRLAETGEMVIGSGEDTYV
notes: source: endogenous, basal body purified from Salmonella HK1003 (sucrose density gradient)
For B1, the binding result in series [1] was “binds”.

B2: full-length Salmonella FliF (MS ring, dataset 1, from pKOT112) (natural protein)
chain: T1 sequence
notes: also called MS ring formed by full-length FliF; FliF ring dataset 1; source: E. coli BL21 (DE3) carrying pKOT112, MS ring purified from the membrane fraction (sucrose gradient, LMNG); copies: 34
For B2, the “stoichiometry N” value in series [2] was 34 subunits.

For the origin of these results see PMC8270960, “Native flagellar MS ring is formed by 34 subunits with 23-fold and 11-fold subsymmetries” (Nature Communications, 2021).
